The target in test [1] is T1, Peptide 1-BSA (MADDYGSEST-C conjugated to BSA) (human).
T1 peptide: MADDYGSESTC(BSA)
In words: ELISA; Ab 1 ug/mL; repI. The protocol: (§1) In brief, plates with each non-conjugated peptide (50 μg/mL) or BSA-conjugated peptide (5 μg/mL) were coated in 0.58M carbonate-bicarbonate buffer pH9.5, 100 μL/well, at 4° C. […] After washing, wells were incubated with the 3, 3′,5,5′-Tetramethylbenzidine (TMB) HRP substrate and reactions were stopped with 2M HCl and OD450 was recorded.

Test [2] deals with T2, Peptide 3, non-conjugated (SSMEDYVNFN-C) (human).
T2 construct: With the extra C-terminal Cys
T2 peptide: SSMEDYVNFNC
In words: ELISA; Ab 1 ug/mL; repI. The protocol: as §1
(In general: An ELISA detects its analyte on a solid surface through an enzyme-linked reagent.)

Test [3] has as its target T3, Peptide 2, non-conjugated (GSESTSSMED-C) (human).
T3 construct: With the extra C-terminal Cys
T3 peptide: GSESTSSMEDC
Description: ELISA; Ab 1 ug/mL; repI. The protocol: as §1

Test [4] concerns the target T4, BSA (negative control coating) (bovine, UniProt P02769 25-607).
T4 construct: also called Negative control BSA
Description: ELISA; Ab 1 ug/mL; repI. The protocol: as §1

Test [5] concerns the target T5, Peptide 2-BSA (GSESTSSMED-C conjugated to BSA) (human).
T5 peptide: GSESTSSMEDC(BSA)
Description: ELISA; Ab 1 ug/mL; repI. The protocol: as §1

Test [6] addresses T6, Peptide 4-BSA (SMEDYVNFNF-C conjugated to BSA) (human).
T6 peptide: SMEDYVNFNFC(BSA)
In words: ELISA; Ab 1 ug/mL; repI. The protocol:
as §1

Test [7] deals with T7, antigen peptide-BSA (immunisation peptide #1 MADDYGSESTSSMEDYVNFNF-C conjugated to BSA) (human, extra C-terminal Cys conjugated to BSA).
T7 construct: also called Positive control antigen peptide-BSA; MADDY peptide
T7 peptide: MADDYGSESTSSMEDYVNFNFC
Description: ELISA; Ab 0.0625 ug/mL; repII. The protocol:
as §1

The target in test [8] is T3, Peptide 2, non-conjugated (GSESTSSMED-C). Description: ELISA; Ab 0.0625 ug/mL; repII. The protocol:
as §1

Test [9] concerns the target T4, BSA (negative control coating). Description: ELISA; Ab 0.0625 ug/mL; repII. The protocol: as §1
The target of test [10] is T6, Peptide 4-BSA (SMEDYVNFNF-C conjugated …). Description: ELISA; Ab 0.0625 ug/mL; repII. How it is done:
as §1

In test [11] the target is T8, biotin-peptide TSSMEDYVNF (human).
T8 peptide: Biotin-TSSMEDYVNF
In words: ELISA biotin-peptide; scFv 0.3125 ug/mL; repI. How it is done: (§2) The peptides were synthesized naked or with a N-terminal Biotin modification with a purity of >98%. All four scFvs were verified by ELISA that can be detected with anti-His antibodies. ELISA was performed for scFv-peptide binding validation. Briefly, naked peptides were coated (50 μg/mL) in 0.58M carbonate-bicarbonate buffer pH9.5, 100 μL/well, 4° C. O/N. Then after blocking (3% BSA-PBS, 300 μL/well 37° C. 1.5 h) and washing (PBS+Tween-20 0.05% v/v (0.05% PBST), wells were incubated with each purified scFv antibody at concentration of 1 μg/mL in PBS at 37° C. 1 h. After washing (0.05% PBST), wells were incubated with secondary antibodies (goat anti-His IgG-HRP) in PBS, 37° C., 30 min. After washing, and incubation with TMB substrate, reactions were stopped with 2M HCl and reading was quantified at OD450.
(§3) ELISA with biotin-conjugated peptides (5 μg/mL) was performed very similar to described above with minor modifications.
(§4) A full curve ELISA was performed for each positive scFv/biotin-peptide pair in order to confirm previous results. Tables 15-17 show ELISA results of the dose-dependent full curve for each positive peptide with scFv “CCR9_HUM”, “Comp-2” and “Comp-3”, respectively.

Test [12] addresses T9, biotin-peptide SSMEDYVNFN (human).
T9 peptide: Biotin-SSMEDYVNFN
In words: ELISA biotin-peptide; scFv 0.3125 ug/mL; repI. How it is done:
as §2, §3, §4

The target of test [13] is T10, biotin-peptide SMEDYVNFNF (human).
T10 peptide: Biotin-SMEDYVNFNF
In words: ELISA biotin-peptide; scFv 0.3125 ug/mL; repI. How it is done:
as §2, §3, §4

The target of test [14] is T11, biotin-peptide MEDYVNFNFT (human).
T11 peptide: Biotin-MEDYVNFNFT
In words: ELISA biotin-peptide; scFv 0.3125 ug/mL; repI. The protocol: as §2, §3, §4

A further test addresses T12, naked peptide TSSMEDYVNF (human).
T12 peptide: TSSMEDYVNF
Description: ELISA, naked peptide.

A further test deals with T13, naked peptide TDFTSPIPNM (human).
T13 peptide: TDFTSPIPNM
In words: ELISA, naked peptide.

A further test concerns the target T14, naked peptide TSPIPNMADD (human).
T14 peptide: TSPIPNMADD
In words: ELISA, naked peptide.

Another test deals with T15, naked peptide SMEDYVNFNF (human).
T15 peptide: SMEDYVNFNF
In words: ELISA, naked peptide.

Another test addresses T16, naked peptide SSMEDYVNFN (human).
T16 peptide: SSMEDYVNFN
Description: ELISA, naked peptide.

The next test deals with T17, naked peptide YCEKNNVRQF (human).
T17 peptide: YCEKNNVRQF
Description: ELISA, naked peptide.

A further test addresses T18, naked peptide TDFYCEKNNV (human).
T18 peptide: TDFYCEKNNV
Description: ELISA, naked peptide.

A further test addresses T19, naked peptide IPNMADDYGS (human).
T19 peptide: IPNMADDYGS
Description: ELISA, naked peptide.

For the next test, the target named is T20, naked peptide KNNVRQFAS (human).
T20 peptide: KNNVRQFAS
Description: ELISA, naked peptide.

Another test concerns the target T21, naked peptide DYGSESTSSM (human).
T21 peptide: DYGSESTSSM
Description: ELISA, naked peptide.

For the next test, the target named is T22, naked peptide FNFTDFYCEK (human).
T22 peptide: FNFTDFYCEK
Description: ELISA, naked peptide.

The target in the next test is T23, naked peptide MTPTDFTSPI (human).
T23 peptide: MTPTDFTSPI
In words: ELISA, naked peptide.

A further test has as its target T24, naked peptide MEDYVNFNFT (human).
T24 peptide: MEDYVNFNFT
In words: ELISA, naked peptide.

A further test has as its target T25, naked peptide YVNFNFTDFY (human).
T25 peptide: YVNFNFTDFY
In words: ELISA, naked peptide.

Another test concerns the target T26, naked peptide SESTSSMEDY (human).
T26 peptide: SESTSSMEDY
In words: ELISA, naked peptide.

In another test the target is T27, naked peptide MADDYGSEST (human).
T27 peptide: MADDYGSEST
In words: ELISA, naked peptide.

Where no end group is shown, it is not given here. The star is where a group is joined. Biotin = O=C1N[C@H]2[C@H](CS[C@H]2CCCCC(=O)*)N1

T4 sequence (P02769 25-607 limits assumed): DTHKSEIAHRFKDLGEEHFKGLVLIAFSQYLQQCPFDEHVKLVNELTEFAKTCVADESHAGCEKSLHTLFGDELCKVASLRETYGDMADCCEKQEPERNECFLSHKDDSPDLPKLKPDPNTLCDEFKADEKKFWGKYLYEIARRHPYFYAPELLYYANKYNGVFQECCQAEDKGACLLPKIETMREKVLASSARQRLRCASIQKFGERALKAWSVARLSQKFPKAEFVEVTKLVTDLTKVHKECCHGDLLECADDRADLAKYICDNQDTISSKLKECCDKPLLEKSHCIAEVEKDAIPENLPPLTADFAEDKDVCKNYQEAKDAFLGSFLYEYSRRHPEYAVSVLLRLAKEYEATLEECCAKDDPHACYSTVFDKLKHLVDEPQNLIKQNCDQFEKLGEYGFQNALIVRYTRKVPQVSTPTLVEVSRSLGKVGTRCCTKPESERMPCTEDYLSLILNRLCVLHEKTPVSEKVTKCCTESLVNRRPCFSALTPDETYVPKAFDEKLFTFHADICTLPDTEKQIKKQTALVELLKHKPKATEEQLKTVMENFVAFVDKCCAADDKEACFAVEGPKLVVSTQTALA

B1: anti-CCR9 antibody clone 115 (murine, from hybridoma #115) (antibody, V domains shown)
VH: QVQLKQSGPELVKPGTSVRVSCTASGYSFTDYIIYWVKQSHGRSLEWIGYIDPNNYNTRYSQKFKGKATLTVDKSSTSAFMHLNSLTSDDSAVYYCARDVYWGQGTTLTVSS
VL: DVVMTQTPLSLTVSLGDQASISCRSSQSLVHSNGKTYLQWYLQKPGQSPKLLIYKVSNRFSGVPDRFSGSGSGTDFTLKISRVEAEDLGVYFCAQSTHVWTFGGGTKLEIKR
notes: Mouse IgG1
For the molecule B1, the OD450 was 0.04 OD in test [1]; 2.06 OD in test [2]; 0.03 OD in test [3]; 0.02 OD in test [4]; 0.03 OD in test [5]; 2.73 OD in test [6]. Also, the OD450 in test [7] was found to be 2.08 OD; in test [8], 0.01 OD; in test [9] it was 0.01 OD; in [10], 2.01 OD.

B2: CCR9_HUM2 scFv (humanized anti-CCR9 scFv, SEQ ID NO: 17 with C-terminal 6xHis tag) (scFv)
scFv: QVQLVQSGAEVKKPGASVKVSCTASGYSFTDYIIYWVKQAHGQSLEWMGYIDPNNYNTRYSQKFQGKVTITVDKSSTSAYMELNSLTSDDTAVYYCARDVYWGQGTTVTVSSGGGGSGGGGSGGGGSGGGGSDVVMTQTPLSLSVTPGQPASISCRSSQSLVHSNGKTYLQWYLQKPGQSPKLLIYKVSNRFSGVPDRFSGSGSGTDFTLKISRVEAEDVGVYFCAQSTHVWTFGGGTKVEIKRAHHHHHH
B2: the OD450 in test [11] was found to be 0.46 OD; in test [12], 1.69 OD; in test [13], 1.63 OD; in [14], 1.47 OD.

B3: Comparative antibody 1 (Comp-1) scFv, SEQ ID NO: 10 from WO2023/037125 A1, His-tagged (scFv)
scFv: QVQLKESGPGLVQPSQTLSLTCTVSGFSVASYDMHWVRLPPGKGLEWMGIIWANGNTHYNSGLKSRLSISRDTSKSQVFLKMNSLQTEDTAIYFCTRGGFAYWGQGTLVTVSSGGGGSGGGGSGGGGSGGGGSDVVMTQTPVSLSVSLGGQVSISCRSSQSLVHNNGNTYLSWYLQKPGQSPQLLIYKVSNRFSGVSDRFSGSGSGTDFTLKISRVEPDDLGVYYCGQGTQYPTFGGGTKLELKHHHHHH
Consider B3, for which the binding result with naked peptide TSSMEDYVNF, in the test with naked peptide TDFTSPIPNM, in the test with naked peptide TSPIPNMADD, in the test with naked peptide SMEDYVNFNF, in the test with naked peptide SSMEDYVNFN and with naked peptide YCEKNNVRQF was “no binding (tested: 1 ug/mL)” throughout. Also, the binding result with naked peptide TDFYCEKNNV, with naked peptide IPNMADDYGS, in the test with naked peptide KNNVRQFAS, in the test with naked peptide DYGSESTSSM, in the test with naked peptide FNFTDFYCEK and in the test with naked peptide MTPTDFTSPI was “no binding (tested: 1 ug/mL)” each time. Further, the binding result with naked peptide MEDYVNFNFT, with naked peptide YVNFNFTDFY, in the test with naked peptide SESTSSMEDY and with naked peptide MADDYGSEST was “no binding (tested: 1 ug/mL)” each time.

Values taken from US20260232732A1 (FUNDACI INSTITUT DE RECERCA CONTRA LA LEUC MIA JOSEP …, published 2026).
